B1: Subtilisin E (wild type) (protein)
chain: AQSVPYGISQIKAPALHSQGYTGSNVKVAVIDSGIDSSHPDLNVRGGASFVPSETNPYQDGSSHGTHVAGTIAALNNSIGVLGVSPSASLYAVKVLDSTGSGQYSWIINGIEWAISNNMDVINMSLGGPTGSTALKTVVDKAVSSGIVVAAAAGNEGSSGSTSTVGYPAKYPSTIAVGAVNSSNQRASFSSAGSELDVMAPGVSIQSTLPGGTYGAYNGTSMATPHVAGAAALILSKHPTWTNAQVRDRLESTATYLGNSFYYGKGLINVQAAAQ
B2: Variant 1 (Y6N/I31L/S38T/F50I/Q103R) (protein)
chain: AQSVPNGISQIKAPALHSQGYTGSNVKVAVLDSGIDSTHPDLNVRGGASIVPSETNPYQDGSSHGTHVAGTIAALNNSIGVLGVSPSASLYAVKVLDSTGSGRYSWIINGIEWAISNNMDVINMSLGGPTGSTALKTVVDKAVSSGIVVAAAAGNEGSSGSTSTVGYPAKYPSTIAVGAVNSSNQRASFSSAGSELDVMAPGVSIQSTLPGGTYGAYNGTSMATPHVAGAAALILSKHPTWTNAQVRDRLESTATYLGNSFYYGKGLINVQAAAQ
B3: Variant 22 (E54D/Q103R/T133K/E156A/Y217H) (protein)
chain: AQSVPYGISQIKAPALHSQGYTGSNVKVAVIDSGIDSSHPDLNVRGGASFVPSDTNPYQDGSSHGTHVAGTIAALNNSIGVLGVSPSASLYAVKVLDSTGSGRYSWIINGIEWAISNNMDVINMSLGGPTGSKALKTVVDKAVSSGIVVAAAAGNAGSSGSTSTVGYPAKYPSTIAVGAVNSSNQRASFSSAGSELDVMAPGVSIQSTLPGGTYGAHNGTSMATPHVAGAAALILSKHPTWTNAQVRDRLESTATYLGNSFYYGKGLINVQAAAQ
B4: Variant 4 (Q103R/V138A/A150V/E156A/Y217H/Q271H) (protein)
chain: AQSVPYGISQIKAPALHSQGYTGSNVKVAVIDSGIDSSHPDLNVRGGASFVPSETNPYQDGSSHGTHVAGTIAALNNSIGVLGVSPSASLYAVKVLDSTGSGRYSWIINGIEWAISNNMDVINMSLGGPTGSTALKTAVDKAVSSGIVVVAAAGNAGSSGSTSTVGYPAKYPSTIAVGAVNSSNQRASFSSAGSELDVMAPGVSIQSTLPGGTYGAHNGTSMATPHVAGAAALILSKHPTWTNAQVRDRLESTATYLGNSFYYGKGLINVHAAAQ

Target: fluorescent labeled casein or bovine serum albumin molecules

Compared with B1, B2 is 1.7-fold lower in Km: 194 µM for the first, 117 µM for the second.

First: B3
Second: B4
The Km of the first is 2.7-fold lower: 26 µM for the first, 71 µM for the second.
